The target in data set [1] is T1, Recombinant Xenopus GINS (preparation of ref. 54, Sf9 expression) (Xenopus laevis, UniProt Q7ZT47 1-196; Q7ZT46 1-185; Q7ZT01 1-210; Q7ZT48 1-221).
T1 construct: PSF1 subunit of Xenopus GINS; PSF2 subunit of Xenopus GINS; PSF3 subunit of Xenopus GINS; SLD5 subunit of Xenopus GINS; also called purified GINS; source: Sf9 expression, purified; copies: + + +
T1 sequence (looked up) 1: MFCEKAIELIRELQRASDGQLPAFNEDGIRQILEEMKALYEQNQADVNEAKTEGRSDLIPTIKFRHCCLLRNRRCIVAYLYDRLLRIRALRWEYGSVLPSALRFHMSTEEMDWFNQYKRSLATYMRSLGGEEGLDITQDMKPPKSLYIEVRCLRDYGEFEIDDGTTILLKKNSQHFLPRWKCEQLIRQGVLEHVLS
T1 sequence (looked up) 2: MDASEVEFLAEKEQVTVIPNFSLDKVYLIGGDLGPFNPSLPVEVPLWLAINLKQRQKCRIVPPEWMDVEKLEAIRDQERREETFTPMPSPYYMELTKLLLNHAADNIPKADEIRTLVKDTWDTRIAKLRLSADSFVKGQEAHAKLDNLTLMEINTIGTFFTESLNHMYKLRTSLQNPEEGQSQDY
T1 sequence (looked up) 3: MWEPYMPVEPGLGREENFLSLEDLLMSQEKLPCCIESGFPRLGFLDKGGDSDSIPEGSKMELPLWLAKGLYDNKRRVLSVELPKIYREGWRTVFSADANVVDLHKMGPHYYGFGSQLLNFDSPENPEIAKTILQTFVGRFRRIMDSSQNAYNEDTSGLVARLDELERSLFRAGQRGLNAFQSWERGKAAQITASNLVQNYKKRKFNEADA
T1 sequence (looked up) 4: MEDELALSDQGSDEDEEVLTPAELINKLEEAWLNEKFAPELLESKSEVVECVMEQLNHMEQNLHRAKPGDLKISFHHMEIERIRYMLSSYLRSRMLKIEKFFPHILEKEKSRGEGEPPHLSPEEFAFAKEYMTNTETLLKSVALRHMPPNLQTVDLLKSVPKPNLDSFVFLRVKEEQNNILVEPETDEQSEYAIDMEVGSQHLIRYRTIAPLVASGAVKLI
Nature of the data set: co-IP; purified FLAG-DONSON, GINS and TOPBP1^1−530 mixed, each 0.5 μM in IP wash buffer, 15 min room temperature; anti-FLAG beads 30 min room temperature; immunoblot (fig. S11B, lanes 22 to 24). The conditions noted are these: both partners purified. A general note: A western blot detects proteins with antibodies after separation by electrophoresis.

Data set [2] concerns the molecule itself. The experiment in a line: mass photometry; Refeyn TwoMP; FLAG-DONSON diluted to 200 nM in egg lysis buffer (10 mM HEPES-KOH pH 7.7, 50 mM KCl, 2.5 mM MgCl2, 250 mM sucrose), 2 μL mixed into an 18 μL droplet of PBS.

Where a chain is given by its changes, count along the chain named. In names and notes the source's numbering stands.

B1: Recombinant FLAG-tagged DONSON, wild type (natural protein, Xenopus laevis, UniProt Q5U4U4 1-579, looked up)
chain: MAELLPGYSPSFKKPSEILRLSRRRSRSEASKTGLSPFSPGDVIKRVPGLRPFSPGPNKGAGVKRRNPFASLENTVCSPVKRRAETVAEYGAASLEPRALSAVRPSCLGQDSPEPPQFNSVEDVIWGDPLAADADPLVKTESPEKPAPACEIPKGSVTFPADWSLKTRLLFTSSHSFSWADHLKAQEEAQGLVMQCRATAVNLPHSIQEPKLSTDLRCAFQQSLVHWIHPSLPWVQLFPRIGVDRKMAGKNTPWSQDESLQQVLMSEWALSFTSLYNLLKAKLCPYFYVCTYQFTVLFRAAGLAGSDVITAVMSPTTRGLREAMKNEGITFSQPLVEDDTGKKQKKPEAASQGDINPEKENGTAEADEASDESDEDESFSWLEEMGVEDKIKKPDSISIKLRKEKNEVKLDHKPESVVLVKGTNTFTLLNFLINCKSIVAAAGLQAGLPPTLLSPVAFRGATMHALKARSVNVKTRVNSGYKDQFSLEITGPIMPHSLHSLTMLLQSAQRGSFSAGLYTHEPTAVFNTPIHSQAVKEISADLQNCGLHPCTVEQLTQVNELGKLSLRHLEMTDYRYTWK
notes: Xenopus DONSON (Downstream Neighbor of SON); also called rFLAG-DONSON; FLAG-DONSON; source: E. coli Rosetta (DE3) pLysS, purified (Glutathione Sepharose, PreScission cleavage, Superdex 200); not shown: GST, N-terminal, cleaved
For orientation: stoichiometry N means a count of units in the complex or per binding partner. For the molecule B1, the binding result in data set [1] is “binds”. In data set [2], the “stoichiometry N” value came out at 2.

B2: Recombinant FLAG-tagged DONSON N430A (natural protein, Xenopus laevis, UniProt Q5U4U4 1-579, looked up)
chain: B1 chain with N430A
notes: Xenopus DONSON with N430A; source: E. coli Rosetta (DE3) pLysS, purified (Glutathione Sepharose, PreScission cleavage, Superdex 200); not shown: GST, N-terminal, cleaved
Turning to B2, the binding result in data set [1] is recorded as “binds”.

For the origin of these results see article PMC10801813, “In silico protein interaction screening uncovers DONSON’s role in replication initiation” (Science (New York, N.Y.), 2023).
